Assay results as given in the supplement of paper PMC10567573.

B1: ZNF232 (parent)
chain: GKAYGWCSELIRHRRVHARKEPSH

Variants of: B1
Experiment: protein stability index of a GFP-peptide fusion (GPS, HEK-293T) (PSI 1-6); higher = more stable
Conditions: c terminus: a fixed tail appended
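Further: lentivirally expressed fusions sorted by FACS into six bins by GFP to DsRed ratio, PSI derived from sequencing read proportions per bin multiplied by bin number.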

| Variant | protein stability index |
| --- | --- |
| GKAYGMCSELIRHRRVHARKEPSH [W6M] | 3.82 |
| GKAYGGCSELIRHRRVHARKEPSH [W6G] | 3.96 |
| GKAYGHCSELIRHRRVHARKEPSH [W6H] | 3.67 |
| GKAYGFCSELIRHRRVHARKEPSH [W6F] | 3.65 |
| GKAYGSCSELIRHRRVHARKEPSH [W6S] | 3.65 |
| GKAYGDCSELIRHRRVHARKEPSH [W6D] | 4.05 |
| GKAYGACSELIRHRRVHARKEPSH [W6A] | 3.49 |
| GKAYGLCSELIRHRRVHARKEPSH [W6L] | 2.95 |
| GKAYGRCSELIRHRRVHARKEPSH [W6R] | 3.7 |
| GKAYGQCSELIRHRRVHARKEPSH [W6Q] | 3.81 |
| GKAYGECSELIRHRRVHARKEPSH [W6E] | 3.35 |
| GKAYGVCSELIRHRRVHARKEPSH [W6V] | 3.59 |
| GKAYGICSELIRHRRVHARKEPSH [W6I] | 3.27 |
| GKAYGCCSELIRHRRVHARKEPSH [W6C] | 2.6 |
| GKAYGTCSELIRHRRVHARKEPSH [W6T] | 3.69 |
| GKAYGKCSELIRHRRVHARKEPSH [W6K] | 4.02 |
| GKAYGYCSELIRHRRVHARKEPSH [W6Y] | 2.95 |
| GKAYGNCSELIRHRRVHARKEPSH [W6N] | 3.98 |
| GKAYGWCSPLIRHRRVHARKEPSH [E9P] | 3.24 |
| GKAYGWCSYLIRHRRVHARKEPSH [E9Y] | 2.18 |
| GKAYGWCSRLIRHRRVHARKEPSH [E9R] | 2.83 |
| GKAYGWCSHLIRHRRVHARKEPSH [E9H] | 3.25 |
| GKAYGWCSMLIRHRRVHARKEPSH [E9M] | 1.66 |
| GKAYGWCSGLIRHRRVHARKEPSH [E9G] | 3.03 |

| Variant | protein stability index |
| --- | --- |
| GKAYGWCSNLIRHRRVHARKEPSH [E9N] | 2.84 |
| GKAYGWCSLLIRHRRVHARKEPSH [E9L] | 2.73 |
| GKAYGWCSFLIRHRRVHARKEPSH [E9F] | 1.59 |
| GKAYGWCSCLIRHRRVHARKEPSH [E9C] | 1.76 |
| GKAYGWCSWLIRHRRVHARKEPSH [E9W] | 1.81 |
| GKAYGWCSSLIRHRRVHARKEPSH [E9S] | 3.02 |
| GKAYGWCSILIRHRRVHARKEPSH [E9I] | 2.51 |
| GKAYGWCSTLIRHRRVHARKEPSH [E9T] | 3.53 |
| GKAYGWCSKLIRHRRVHARKEPSH [E9K] | 2.96 |
| GKAYGWCSDLIRHRRVHARKEPSH [E9D] | 3.12 |
| GKAYGWCSQLIRHRRVHARKEPSH [E9Q] | 2.64 |
| GKAYGWCSVLIRHRRVHARKEPSH [E9V] | 1.21 |
| GKAYGWCSALIRHRRVHARKEPSH [E9A] | 2.74 |
| GKAYGWCHELIRHRRVHARKEPSH [S8H] | 2.69 |
| GKAYGWCVELIRHRRVHARKEPSH [S8V] | 2.02 |
| GKAYGWCIELIRHRRVHARKEPSH [S8I] | 1.57 |
| GKAYGWCCELIRHRRVHARKEPSH [S8C] | 2.14 |
| GKAYGWCPELIRHRRVHARKEPSH [S8P] | 3.21 |
| GKAYGWCAELIRHRRVHARKEPSH [S8A] | 2.67 |
| GKAYGWCTELIRHRRVHARKEPSH [S8T] | 3.25 |
| GKAYGWCRELIRHRRVHARKEPSH [S8R] | 2.99 |
| GKAYGWCWELIRHRRVHARKEPSH [S8W] | 1.97 |
| GKAYGWCFELIRHRRVHARKEPSH [S8F] | 1.97 |
| GKAYGWCEELIRHRRVHARKEPSH [S8E] | 3.2 |

| Variant | protein stability index |
| --- | --- |
| GKAYGWCGELIRHRRVHARKEPSH [S8G] | 2.5 |
| GKAYGWCDELIRHRRVHARKEPSH [S8D] | 3.22 |
| GKAYGWCMELIRHRRVHARKEPSH [S8M] | 1.94 |
| GKAYGWCLELIRHRRVHARKEPSH [S8L] | 2.45 |
| GKAYGWCQELIRHRRVHARKEPSH [S8Q] | 3.36 |
| GKAYGWCNELIRHRRVHARKEPSH [S8N] | 3.21 |
| GKAYGWCYELIRHRRVHARKEPSH [S8Y] | 2.34 |
| GKAYGWCKELIRHRRVHARKEPSH [S8K] | 2.6 |
| GKANGWCSELIRHRRVHARKEPSH [Y4N] | 3.83 |
| GKAGGWCSELIRHRRVHARKEPSH [Y4G] | 3.77 |
| GKAMGWCSELIRHRRVHARKEPSH [Y4M] | 3.07 |
| GKARGWCSELIRHRRVHARKEPSH [Y4R] | 3.6 |
| GKAHGWCSELIRHRRVHARKEPSH [Y4H] | 3.63 |
| GKAIGWCSELIRHRRVHARKEPSH [Y4I] | 3.06 |
| GKASGWCSELIRHRRVHARKEPSH [Y4S] | 4.18 |
| GKADGWCSELIRHRRVHARKEPSH [Y4D] | 4.04 |
| GKAEGWCSELIRHRRVHARKEPSH [Y4E] | 3.62 |
| GKAWGWCSELIRHRRVHARKEPSH [Y4W] | 2.62 |
| GKAAGWCSELIRHRRVHARKEPSH [Y4A] | 3.54 |
| GKAPGWCSELIRHRRVHARKEPSH [Y4P] | 4.12 |
| GKALGWCSELIRHRRVHARKEPSH [Y4L] | 2.76 |
| GKATGWCSELIRHRRVHARKEPSH [Y4T] | 3.19 |
| GKAFGWCSELIRHRRVHARKEPSH [Y4F] | 2.84 |
| GKAQGWCSELIRHRRVHARKEPSH [Y4Q] | 3.75 |

| Variant | protein stability index |
| --- | --- |
| GKAVGWCSELIRHRRVHARKEPSH [Y4V] | 3.04 |
| GKACGWCSELIRHRRVHARKEPSH [Y4C] | 2.2 |
| GKAKGWCSELIRHRRVHARKEPSH [Y4K] | 3.62 |
| GKAYGWCSELFRHRRVHARKEPSH [I11F] | 2.79 |
| GKAYGWCSELRRHRRVHARKEPSH [I11R] | 3.67 |
| GKAYGWCSELLRHRRVHARKEPSH [I11L] | 2.61 |
| GKAYGWCSELGRHRRVHARKEPSH [I11G] | 3.35 |
| GKAYGWCSELMRHRRVHARKEPSH [I11M] | 3.18 |
| GKAYGWCSELQRHRRVHARKEPSH [I11Q] | 4.02 |
| GKAYGWCSELSRHRRVHARKEPSH [I11S] | 3.8 |
| GKAYGWCSELARHRRVHARKEPSH [I11A] | 3.41 |
| GKAYGWCSELHRHRRVHARKEPSH [I11H] | 3.31 |
| GKAYGWCSELKRHRRVHARKEPSH [I11K] | 3.16 |
| GKAYGWCSELVRHRRVHARKEPSH [I11V] | 2.92 |
| GKAYGWCSELNRHRRVHARKEPSH [I11N] | 3.02 |
| GKAYGWCSELCRHRRVHARKEPSH [I11C] | 3.37 |
| GKAYGWCSELTRHRRVHARKEPSH [I11T] | 3.34 |
| GKAYGWCSELPRHRRVHARKEPSH [I11P] | 3.11 |
| GKAYGWCSELDRHRRVHARKEPSH [I11D] | 3.9 |
| GKAYGWCSELWRHRRVHARKEPSH [I11W] | 2.79 |
| GKAYGWCSELERHRRVHARKEPSH [I11E] | 3.43 |
| GKAYGWCSELYRHRRVHARKEPSH [I11Y] | 2.9 |
